# According to the nanobody polyreactivity screen of Harvey et al. (2022):
# Experiment: yeast display, Sf9 membrane polyspecificity reagent, FACS + sequencing; frameworks hold sequencing errors
# In short: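 Genes from sorted yeast were amplified by colony PCR, read by MiSeq 2 × 250 sequencing and filtered on CDR length. These cells carried a synthetic nanobody library in Saccharomyces cerevisiae BJ5465 and were sorted by FACS into low and high (top ~1%) gates on anti-HA and streptavidin fluorescence. Polyreactivity is labelled according to the gate of origin.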
row,Sequence,polyreactivity (PSR sort gate)
1,QVQLVESGGGLVQAGGSLRLSCAASGSIFPYNAMGWYRPAPGKERELVATISSGGSTNYADSVKGRFTISRDNAMNTVYLQMNIMKPEDTAVYYCAKETIGQDPVSGAWARHEYDYWGQGTQVTVSS,low polyreactivity
2,QVQLVESGGGLVQAGGSLRLSCAASGSIFPYNAMGWYRQAPGKERELVAAISKRGGSTYYADSVKGRFTISRDNAKNTVYLQMNSLKPEDTAVYYCAARYPPYRSWYSYDYWGQGTQVTVSS,low polyreactivity
3,QVQLVESGGGLVQAGGSLRLSCAASGSIFPYNVMGWYRQAPGKERELVAAISTRGGRTYYADSVKGRVTISRDNAKNTVYLQMNSLKPEDTAVYDCATAGGPYSASGYYGGQGTQVTVSS,high polyreactivity
4,QVQLVESGGGLVQAGGSLRLSCAASGSIFPYNVMGWYRQTPGKERELVADIRSDGSTTYADSVKGRFTISRDNAKNTVYLQMNSLKPEDTAVYDCAAVWTYLYSYSLWLEYDYWGQGTQVTVSS,low polyreactivity
5,QVQLVESGGGLVQAGGSLRLSCAASGSIFPYYAMGWNRQAPGKERELVATITSRGGSTYYADSVKGRFTISRDNAKNTVYLQMNSLKPEDTAVYYCAKEYRYYRRRYDYWGQGTQVTVSS,high polyreactivity
6,QVQLVESGGGLVQAGGSLRLSCAASGSIFPYYAMGWSRQAPGKERELVASINQSDGTTYYADSVKGRFTISRDNAKNTVYLQMNSLKPEDTAVYYCAAAYFYWRVDKYYYWGQGTQVTVSS,low polyreactivity
7,QVQLVESGGGLVQAGGSLRLSCAASGSIFPYYAMGWYRQAPGKEREFVAAITISGGSTYYADSVKGRFTISRDNAKNTVYLQMNSLKPEDTAVYYCAVDRGISVGYTRFDYWGKGTQVTVSS,low polyreactivity
8,QVQLVESGGGLVQAGGSLRLSCAASGSIFPYYAMGWYRQAPGKEREFVASISSVTSTYADSVKGRFTISRDNAKNTVYLQMNSLKPEDTAVYYCAADRAYSWYSVSRYNYWGQGTQVTVSS,low polyreactivity
9,QVQLVESGGGLVQAGGSLRLSCAASGSIFPYYAMGWYRQAPGKVRELVATISSGGSTKYADSVKGRFTISRDNAKNTVYLQMNSLKPEDTAVYYCAADWYLGPYSWYTEKYNYCGQGTQVTVSS,high polyreactivity
10,QVQLVESGGGLVQAGGSLRLSCAASGSIFPYYTMGWYRQAPGKERELVAGISSGGSTNYADSVKGRFTISRDNAKNTVYLQMNSLKPEDTAVYYCNARRYWLRYDYWGQGTQVTVSS,low polyreactivity
11,QVQLVESGGGLVQAGGSLRLSCAASGSIFPYYVMGWYRQAPGKERYADSVKGRFTISRDNAKNTVYLQMNSLKPVDTAVYYSAAKVPEPPSLDESDYWGQGSQVTVSS,low polyreactivity
12,QVQLVESGGGLVQAGGSLRLSCAASGSIFQANAMGWYRQAPGKERELLAAISSRGGSTYYADSVKGRFTISRDNAKNTVYLQMNSLKPGDTAVYYCAADSIQYTARPYDYWGQGTQVTVSS,low polyreactivity
13,QVQLVESGGGLVQAGGSLRLSCAASGSIFQDNTMGWYRQAPGKESELVAAISWSATSTYYADSVKGRFTISRDNAKNTVYLQMNSLNPEDTAVYYCAARYWLFPPGYNYWGQGTQVNVSS,high polyreactivity
14,QVQLVESGGGLVQAGGSLRLSCAASGSIFQGNAMGWYRQAPGKERELVAAISQSGGRTYYADSVKGRFTITRDNAKNTVYLQMNSLKPEDTAVYYCNTTKVYRLRFDYWGQGTQVTVSS,low polyreactivity
15,QVQLVESGGGLVQAGGSLRLSCAASGSIFQGYAMGWYRQAPGKERELVAAITASGGSTYYADSVKGRFTISRDNAMNTVYLQMNSLKPEDTAVYYCAAVRKSVGVKYDFWGQGTQVTVSS,high polyreactivity
16,QVQLVESGGGLVQAGGSLRLSCAASGSIFQGYAMGWYRQAPGKERELVAVITSSGGSTYYADSVKGRFTISRDNAKNTVYLQMNSLKPEDTAVYYCAVGLLVYSRTYIGQAFFRYNYWGQGTQVTVSS,high polyreactivity
17,QVQLVESGGGLVQAGGSLRLSCAASGSIFQIYAMGWYRQAPGKERELVAAINSGGITKYADSVKGRFTISRDNAKNTVYLQMNSLKPEDTAVYYCAKRYGWPYGRFDYWGQGTQVTVSS,low polyreactivity
18,QVQLVESGGGLVQAGGSLRLSCAASGSIFQKYAMGWYRQAPGKDRELVAAISWDGGRTYYADSVKGRFTISRDNAKNTVYLQMNSLKPEDTAVYYCYWYDYWGHGTQVTVSS,high polyreactivity
19,QVQLVESGGGLVQAGGSLRLSCAASGSIFQLNAMGWYRQAPGKERELDAAITSGGSTYYADSVKGRFTISRDNAKNTVYLQMNSLKPEDTAVYYCAAYYLYTTPTSEWLSGYDYWGQGTQVTVSS,low polyreactivity
20,QVQLVESGGGLVQAGGSLRLSCAASGSIFQNYAMGWYRQAPGKERELVAAISWSGDTYYADSVKGRFTISRDNAKNTVYLQMNSLKPEDTAVYYCAATYPYSLYYPYYGGDYDYWGQGTQVTVSS,low polyreactivity
21,QVQLVESGGGLVQAGGSLRLSCAASGSIFQPNAMGGGGQAPGKERELVASIRGRGGDTYYADSVKGRFTISRDNAKNTVYLQMNSLKPEDTAVYYCAADYRWGQGTQVTVSS,low polyreactivity
22,QVQLVESGGGLVQAGGSLRLSCAASGSIFQPYAMGWYRPAPGKERELVAAINGRGGSTHYADSVKGRFTISRDNAKNTVYLQMNSLNPEDTAVYYCAATWAYPGSGYVYFYGNDYWGQGTQVTVSS,high polyreactivity

row,Sequence,polyreactivity (PSR sort gate)
1,QVQLVESGGGLVQAGGSLRLSCAASGSIFQPYAMGWYRQAPGKEREFVAAISRSGGITYYADSVKGRFTISRDNAKNTVYLQMNSLKPEDTAVYYCATGRQVVRSYSEGDYWGQGTQVTVSS,low polyreactivity
2,QVQLVESGGGLVQAGGSLRLSCAASGSIFQPYAMGWYRQAPGKERELVATISSSGSTYYADSVKGRFTISRDNAKNTVYLQMTSLKPEDTAVYYCAAVYSDGPYNGYWLEYEYWGQGTQVTVSS,low polyreactivity
3,QVQLVESGGGLVQAGGSLRLSCAASGSIFQRYAMGWYRQAPGKEREFVAAISGRGGSTYYADSVKGRFTISRDNAKNTVYLQMNSLKPEDTAVYSCAADSSRFYGRPRYYYWGQGTQVTVSS,high polyreactivity
4,QVQLVESGGGLVQAGGSLRLSCAASGSIFQSYAMGWYRQAPGKERELVAAIDRSGTSTYYADSVKGRFTISRDNAKNTVYLQMNSLKPEDTAVYYCNTLRRSWQMDYWGQGTQVTVSS,low polyreactivity
5,QVQLVESGGGLVQAGGSLRLSCAASGSIFQSYDMGWYRQAPGKERELVAAIRSGDSTYYADSVKGRFTISRDNAKNTVYLQMNSLKPEDTAVYYCNARYGNESQGWEDYWGQGTQVTVSS,low polyreactivity
6,QVQLVESGGGLVQAGGSLRLSCAASGSIFQSYSMGWYRQAPGKERELVAAISRGGSTYYADSVKGRFTISRDNAKNTVYLQMNSLKPEDTAVYYCAAGSGGGKYLYYYWGQGTQVTVSS,low polyreactivity
7,QVQLVESGGGLVQAGGSLRLSCAASGSIFQVYAMGWYRQAPGKETELVAAIRRRGGSTYYADSVKGRFTISRDNAKNTVYLQMNSLKPEDTAVDYCAARTVGFYRYDYWGLGTQVTVSS,low polyreactivity
8,QVQLVESGGGLVQAGGSLRLSCAASGSIFQVYAMGWYSQAPGKERELVAAITKSGVSTYYADSVKGRFTISRDNAKNTVYLQMNSLKPEDTAVYYCAAPRYVRYHRGYGFDYWGQGTQVTVSS,low polyreactivity
9,QVQLVESGGGLVQAGGSLRLSCAASGSIFQWYAMGWYRQAPGKERELVAAITISGGSTHYADSVKGRFTISRDNAKNTVYLQMNSLKPEDTAVYYCATPRYPSYDYWGQGTQVTVSS,low polyreactivity
10,QVQLVESGGGLVQAGGSLRLSCAASGSIFQYNAMGWYRPAPGKERELVAAISSRGGITYYADSVKGRFTISRDNAKNTVYLQMNSMKPEDTAVYDCAAVAYYSEVRWYEYWGQGTQVTVSS,high polyreactivity
11,QVQLVESGGGLVQAGGSLRLSCAASGSIFQYNAMGWYRQAPGKEREFVAAISSRGGITYYADSVKGRFTISRDNAKNTVYLQMNSLKPEDTAVYYCAAEAYYSEVRWYEYWGQGTQVTVSS,high polyreactivity
12,QVQLVESGGGLVQAGGSLRLSCAASGSIFQYNAMGWYRQAPGKERELVAAISSRGGITYYADSVKGRFTISRDNAQNTVYLQMNSLKPEDTAVYYCAAEAYYSEVRWYEYWGQGTQVTVSS,high polyreactivity
13,QVQLVESGGGLVQAGGSLRLSCAASGSIFQYNAMGWYRQEPGKERELVATITYIGGRTYYAYSVKGRFTISRDNAKNTVYLQMNSLKPEDTAVYYCAAEYYVISSPSFYEYDYWGQGTQVTVSS,low polyreactivity
14,QVQLVESGGGLVQAGGSLRLSCAASGSIFQYYAMGWYRPAARKERELVAAISWSGGSTYYADSVKGRFTISRDNAKTTVSFLMNSLKPEDTAVYYCNARLYHLDYQGRIIRYDYWGQGTQVTESS,high polyreactivity
15,QVQLVESGGGLVQAGGSLRLSCAASGSIFQYYAMGWYRQAPGKEREFVAAISSSGGSTYYADSVKGRFTISRDNAKNTVSLQMNSLKPEDNAVYYCNTPYNGFRFDYWGQGTQVTVSS,low polyreactivity
16,QVQLVESGGGLVQAGGSLRLSCAASGSIFQYYTMGWYRQAPGKERELVATISRRGGTTYYADSVKGRFTISRDNAKNTVYLQMNILKPEDTAVYYCNADSRTYRYYWSYGYWGQGTQVTVSS,high polyreactivity
17,QVQLVESGGGLVQAGGSLRLSCAASGSIFRAYAMGWYRQAPGKERELVADISIGDNTYYADSVKGRFTISRDNAKNTVYLQMNSLKPEDTAVYYCAAVSDDVPWYWPQYTILDYWGQGTQVTVSS,high polyreactivity
18,QVQLVESGGGLVQAGGSLRLSCAASGSIFRAYAMGWYRQAPGKERELVATIRKSGGSTYYADSVKGRFTISRDNAKNTVYLQMNSLKPEDTAVYYCAARTIRYVNFYYWGQGTQVTVSS,high polyreactivity
19,QVQLVESGGGLVQAGGSLRLSCAASGSIFRCNAMGWYRQAPGKERELVAVINSSGGSTYYADSVKGRFTISRDNAKNTVYLQMNSLKPEDTAVYYCAADLFLDGSSQYDPNWWPDGWNTYRLLGGYWGQGTQVTVSS,low polyreactivity
20,QVQLVESGGGLVQAGGSLRLSCAASGSIFRDNAMGWYRQAPGKERELVASIRSSGGRTYYADSVKGRFTISRDNANNTVYLQMNSLKPEDTAVYYCAADWIYAPWYYQESVEYYYWGQGTQVTVSS,low polyreactivity
21,QVQLVESGGGLVQAGGSLRLSCAASGSIFRDYTMGWYRQAPGKERELVAAIRQDGGTTTYADSVKGRFTISRDNAKNTVYLQMNSLKPEDTAVYLWGQGTQVTVSS,low polyreactivity
